Measurements published in paper PMC7136553.

Tests used:
[1] = biological target: C3(x)1 from methylamine treated C3 (peak 2 of the MonoS cation exchange column) (human) (UniProt P01024)
[2] = biological target: C3(x)2 from methylamine treated C3 (peak 3 of the MonoS cation exchange column) (human) (UniProt P01024)
C3b (human) = C3b (human) (UniProt P01024)

**Q.** For Factor B (natural protein), which FB remaining after addition of FD (Wes immunoassay with a mAb to Bb), 1-120 min at 37°C in VB++: practically all at 1 min, 85% at 5 min, 60% at 15 min, 30–40% at 60–120 min [1] is on record?
**A.** 85%

**Q.** And the FB remaining after addition of FD (Wes immunoassay with a mAb to Bb), 1-120 min at 37°C in VB++: all at 1–5 min, 90% at 15 min, 60% at 120 min [2]?
**A.** 90%

**Q.** And the FB remaining after addition of FD (Wes immunoassay with a mAb to Bb), 1-120 min at 37°C in VB++: 90% at 1 min, ca. 60% at 5 min, 25% at 15 min, almost all consumed at 30 min (C3b (human))?
**A.** 90%
